B1: HDV Ribozyme (parent)
chain: GGCCGGCAUGGUCCCAGCCUCCUCGCUGGCGCCGGCUGGGCAACAUUCCGAGGGGACCGUCCCCUCGGUAAUGGCGAAUGGGACCCA

Variants of: B1
Test: self-cleavage, relative activity (ratio to wild type); higher = more cleavage; co-transcriptional

Variant | self-cleavage
GUCCGGCAUGGUCCCAGCCUCCUCGCUGGCGCCGGCUGGGCAACAUUCCGAGGGGACCGUCCCCUCGGUAAUGGGGAAUGGGACCCA [G2U C75G] | 0.0256
GUCCGGCAUGGUCCCAGCCUCCUCGCCGGCGCCGGCUGGGCAACAUUCCGAGGGGACCGUCCCCUCGGUAAUGGCGAAUGGGACCCA [G2U U27C] | 0.0198
GUCCGGCAUGGUCCCAGCCUCCUCGCAGGCGCCGGCUGGGCAACAUUCCGAGGGGACCGUCCCCUCGGUAAUGGCGAAUGGGACCCA [G2U U27A] | 0.0767
GUCCGGCAUGGACCCAGCCUCCUCGCUGGCGCCGGCUGGGCAACAUUCCGAGGGGACCGUCCCCUCGGUAAUGGCGAAUGGGACCCA [G2U U12A] | 0.17
GUCCGGCAUGGUCCCAGCCUCCUCGCUGGCGCCGGCUGGGCAACAUUCCGAAGGGACCGUCCCCUCGGUAAUGGCGAAUGGGACCCA [G2U G52A] | 0.0704
GUCCGGCAUGGUCCCAGCCUCCUCGCUGGCGCCGGCUGGGCAACAUUCCGACGGGACCGUCCCCUCGGUAAUGGCGAAUGGGACCCA [G2U G52C] | 0.0339
GUCCGGCAUGGUCCCAGCCUCCUCGCUGGCGCCGGCUGGGCAACAUUCCGAGGGGACCGUCCCCUCGGUAAUGGCGAAUGGGAUCCA [G2U C84U] | 0.0604
GUCCGGCAUGGUCCCAGCCUCCUCGCUGGCGCCGGCUUGGCAACAUUCCGAGGGGACCGUCCCCUCGGUAAUGGCGAAUGGGACCCA [G2U G38U] | 0.0126
GUCCGGCAUGGUCCCAGCCUCCUCGCUGGCGCCGGCUAGGCAACAUUCCGAGGGGACCGUCCCCUCGGUAAUGGCGAAUGGGACCCA [G2U G38A] | 0.032
GUCCGACAUGGUCCCAGCCUCCUCGCUGGCGCCGGCUGGGCAACAUUCCGAGGGGACCGUCCCCUCGGUAAUGGCGAAUGGGACCCA [G2U G6A] | 0.0355
GUCCGCCAUGGUCCCAGCCUCCUCGCUGGCGCCGGCUGGGCAACAUUCCGAGGGGACCGUCCCCUCGGUAAUGGCGAAUGGGACCCA [G2U G6C] | 0.106
GUCCGGCAUGGUCCCAGCCUCCUCGCUUGCGCCGGCUGGGCAACAUUCCGAGGGGACCGUCCCCUCGGUAAUGGCGAAUGGGACCCA [G2U G28U] | 0.0246
GUCCGGCAUGGUCCCAGCCUCCUCGCUGGCGCCGGCUGGGCAACAUUCCGAGGGGACCGUCCCCUCGGUAAUGGCCAAUGGGACCCA [G2U G76C] | 0.0279
GUCCGGCAUGGUCCCAGCCUCCUCGCUGGCGCCGGCUGGGCAACAUUCCGAGGGGACCGUCCCCUCGGUAAUGGCUAAUGGGACCCA [G2U G76U] | 0.0762
GUCCGGCAUGGUCCCAGCCUCCUCGCUGGCGCCGGCUGGGCAACAUUCCGAGGGGACCGUCGCCUCGGUAAUGGCGAAUGGGACCCA [G2U C62G] | 0.136
GUCCGGCAUGGUCCCAGCCUCCUCGCUGGCGCCGGCUGGGCAACAUUCCGAGGGGACCGUCACCUCGGUAAUGGCGAAUGGGACCCA [G2U C62A] | 0.0166
GUCCGGCAUGGUCCCAGCCUCCUCGCUGGCGCCGGCUGGGCAACAUUCCGAGGGGACCGUCCCCUCGGUAAUGGCGAAUGAGACCCA [G2U G81A] | 0
GUCCGGCAUGGUCCCAGCCUCCUCGCUGGCGCCGGCUGGACAACAUUCCGAGGGGACCGUCCCCUCGGUAAUGGCGAAUGGGACCCA [G2U G40A] | 0.0369
GUCCGGCAUGGUCCCAGCCUCCUCGCUGGCGCCGGCUGGCCAACAUUCCGAGGGGACCGUCCCCUCGGUAAUGGCGAAUGGGACCCA [G2U G40C] | 0.0455
GUCCGGCAUGGUCCCAGCCUCCUCGCUGGCGCCGGCUGGGCAACAUUCCGAGGGGACCGUCCCCUCCGUAAUGGCGAAUGGGACCCA [G2U G67C] | 0.0678
GUCCGGCAUGGUCCCAGCCUCCUCGCUGGCGCCGGCUGGGCAACAUUCCGAGGGGACCGUCCCCUCUGUAAUGGCGAAUGGGACCCA [G2U G67U] | 0.0563
GUCCGGCAUGGUCCCAGCCUCCUCGCUGGCGCCGGCUGGGCAACAUUCCGAGGGGACCGUCCCCUCAGUAAUGGCGAAUGGGACCCA [G2U G67A] | 0.0602

Variant | self-cleavage
GUCCGGCAUGGUCCCAGCCUCCUCGCUGGCGCCGGCUGGGCAACAUUCCGAGGGGACCGUCCCCUCGAUAAUGGCGAAUGGGACCCA [G2U G68A] | 0.0264
GUCCGGCAUGGUCCCAGCCGCCUCGCUGGCGCCGGCUGGGCAACAUUCCGAGGGGACCGUCCCCUCGGUAAUGGCGAAUGGGACCCA [G2U U20G] | 0.0256
GUCCGGCAUGGUCCCAGCCUCCUCGCUGGCGCCGGCUGGGCAACAUUCCGAGGGGACCGUCCCCUUGGUAAUGGCGAAUGGGACCCA [G2U C66U] | 0.0895
GUCCGGCAUGGUCCCAGCCUCCUCGCUGGCGCCGGCUGGGCAACAUUCCGAGGGGACCGUCCCCUGGGUAAUGGCGAAUGGGACCCA [G2U C66G] | 0.0198
GUCCGGCAUGGUCCCAGCCUCCUCGCUGGCGCCGGCUGGGCAACAUUCCGAGGGGACCGUCCCCUCGGUAAUCGCGAAUGGGACCCA [G2U G73C] | 0
GUCCGGCAUGGUCCCAACCUCCUCGCUGGCGCCGGCUGGGCAACAUUCCGAGGGGACCGUCCCCUCGGUAAUGGCGAAUGGGACCCA [G2U G17A] | 0
GUCCGGCAUGGUCCCAUCCUCCUCGCUGGCGCCGGCUGGGCAACAUUCCGAGGGGACCGUCCCCUCGGUAAUGGCGAAUGGGACCCA [G2U G17U] | 0.0366
GUCCGGCAUGGUCCCAGCCUCCUCGCUGGCGCCGGCCGGGCAACAUUCCGAGGGGACCGUCCCCUCGGUAAUGGCGAAUGGGACCCA [G2U U37C] | 0.0801
GUCCGGCAUGGUCCCAGCCUCCUCGCUGGCGCCGGCAGGGCAACAUUCCGAGGGGACCGUCCCCUCGGUAAUGGCGAAUGGGACCCA [G2U U37A] | 0.0378
GUCCGGCAUGGUCCCAGCCUCCUCGCUGGCGCCGGCGGGGCAACAUUCCGAGGGGACCGUCCCCUCGGUAAUGGCGAAUGGGACCCA [G2U U37G] | 0.0422
GUCCGGCAUGGUCCCAGCCUCCUCGCUGGCGCCGGCUGGGCAACAUUCCGAGGGGACCGUCCCCUCGGUAAUGGCGAAUGGGACUCA [G2U C85U] | 0
GUCCGGCAUGGUCCCAGCCUCCUCGCUGGCGCCGGCUGGGCAACAUUCCGAGGGCACCGUCCCCUCGGUAAUGGCGAAUGGGACCCA [G2U G55C] | 0.116
GUCCGGCAUGGUCCCAGCCUCCUCGCUGGCGCCGGCUGGGCAACAUUCCGAGGGAACCGUCCCCUCGGUAAUGGCGAAUGGGACCCA [G2U G55A] | 0.0732
GUCCCGCAUGGUCCCAGCCUCCUCGCUGGCGCCGGCUGGGCAACAUUCCGAGGGGACCGUCCCCUCGGUAAUGGCGAAUGGGACCCA [G2U G5C] | 0
GUCCGGCAUGGUCCCAGCCUCCUCGCUGGCGCCGGCUGGGCAACAUUCCGAGGGGACCGUCCCCUCGGUAAUGGCGAAUUGGACCCA [G2U G80U] | 0.0208
GUCCGGCAUGGUCCCAGCCUCCUCGCUGGCGCCGGCUGGGCAACAUUCCGAGGGGACCGUCCCCUCGGUAAUGGCGAAUAGGACCCA [G2U G80A] | 0.0496
GUCCGGCAUGGUCCCAGCCUCCUCGCUGGCGCCGGCUGGGCAACAUUCCGAGGGGACCGUCCCCUCGGUAAUGGCGAAUCGGACCCA [G2U G80C] | 0.0455
GUCCGGCAUGGUCCCAGCCUCCUCGCUGGCUCCGGCUGGGCAACAUUCCGAGGGGACCGUCCCCUCGGUAAUGGCGAAUGGGACCCA [G2U G31U] | 0.0268
GUCCGGCAUGGUCCCAGCCUCCUCGCUGGCACCGGCUGGGCAACAUUCCGAGGGGACCGUCCCCUCGGUAAUGGCGAAUGGGACCCA [G2U G31A] | 0.0578
GUCCGGCAUGGUCCCAGCCUCCCCGCUGGCGCCGGCUGGGCAACAUUCCGAGGGGACCGUCCCCUCGGUAAUGGCGAAUGGGACCCA [G2U U23C] | 0.112
GUCCGGCAUGGUCCCAGCCUCCUCGCUGGCGCCGGCUGGGCAACAUUCCGAGGGGACCGUCCCCUCGGUAAUGCCGAAUGGGACCCA [G2U G74C] | 0
GUCCGGCACGGUCCCAGCCUCCUCGCUGGCGCCGGCUGGGCAACAUUCCGAGGGGACCGUCCCCUCGGUAAUGGCGAAUGGGACCCA [G2U U9C] | 0.104

Variant | self-cleavage
GUCCGGCAGGGUCCCAGCCUCCUCGCUGGCGCCGGCUGGGCAACAUUCCGAGGGGACCGUCCCCUCGGUAAUGGCGAAUGGGACCCA [G2U U9G] | 0.101
GUCCGGCAUGGUCCCAGCCUCCUCGCUGACGCCGGCUGGGCAACAUUCCGAGGGGACCGUCCCCUCGGUAAUGGCGAAUGGGACCCA [G2U G29A] | 0.0178
GUCCGGCAUGGUCCCAGCCUCCUCGCUGGCGCCGGCUGGGCAACAUUCCGAGGCGACCGUCCCCUCGGUAAUGGCGAAUGGGACCCA [G2U G54C] | 0.0157
GUCCGGCAUGGUCCCAGCCUCCUCGCUGGCGCCGGCUGGGCAACAUUCCGAGGAGACCGUCCCCUCGGUAAUGGCGAAUGGGACCCA [G2U G54A] | 0.0279
GUCCGGCAUGGUCCCAGCCUCCUCGCUGGCGCCGGCUGGGCAACAUUCCGAGGGGACCGUCCCCUCGGUAAUGGCGAAUGGAACCCA [G2U G82A] | 0.0189
GUCCGGCAUGGUCCCAGCCUCCUCACUGGCGCCGGCUGGGCAACAUUCCGAGGGGACCGUCCCCUCGGUAAUGGCGAAUGGGACCCA [G2U G25A] | 0.0391
GUCCGGCAUGGUCCCAGCCUCCUCCCUGGCGCCGGCUGGGCAACAUUCCGAGGGGACCGUCCCCUCGGUAAUGGCGAAUGGGACCCA [G2U G25C] | 0.0244
GUCCGGCAUGGUCCCAGCCUCCUCGCUGGCGCCGGCUGGGCAACAUUCCUAGGGGACCGUCCCCUCGGUAAUGGCGAAUGGGACCCA [G2U G50U] | 0
GUCCGGCAUGGUCCCAGCCUCCUCGCUGGCGCCGGCUGGGCAACAUUCCGAGGGGACCGUCCCGUCGGUAAUGGCGAAUGGGACCCA [G2U C64G] | 0.0791
GUCCGGCAUGGUCCCAGCCUCCUCGCUGGCGCCGGCUGGGCAACAUUCCGAGGGGACCAUCCCCUCGGUAAUGGCGAAUGGGACCCA [G2U G59A] | 0.128
GUCCGGCAUGGUCCCAGCCUCCUCGCUGGCGCCGGCUGGGCAACAUUCCGAGGGGACCUUCCCCUCGGUAAUGGCGAAUGGGACCCA [G2U G59U] | 0.128
GUCCGGCAUGGUCCCAGCCUCCUCGCUGGCGCCUGCUGGGCAACAUUCCGAGGGGACCGUCCCCUCGGUAAUGGCGAAUGGGACCCA [G2U G34U] | 0.0369
GUCCGGCAUGGUCCCAGCCUCCUCGCUGGCGCCGGCUGGGCAACAUUCCGAGCGGACCGUCCCCUCGGUAAUGGCGAAUGGGACCCA [G2U G53C] | 0.0647
GUCCGGCAUGGUCCCAGCCUCCUCGCUGGCGCCGGCUGGGCAACAUUCCGAGAGGACCGUCCCCUCGGUAAUGGCGAAUGGGACCCA [G2U G53A] | 0.0412
GUCCGGCAUGGUCCCAGCCUCCUCGCUGGCGCCGGCUGGGCAACAUUCCGAGGGGACCGUCCGCUCGGUAAUGGCGAAUGGGACCCA [G2U C63G] | 0.0528
GUCCGGCAUGGUCCCAGCCUCCUCGCUGGCGCCGGCUGGGCAACAUUCCGAGGGGACCGUCCACUCGGUAAUGGCGAAUGGGACCCA [G2U C63A] | 0.101
GUCCGGCAUGGUCCCAGCCUCCUCGCUGGCGCCGGCUGGGCAACAUUCCGAGGGGACCGUCCUCUCGGUAAUGGCGAAUGGGACCCA [G2U C63U] | 0.0545
GUCCGGCAUGGUCCCAGCCUCCUCGCUGGCGCCGGCUGGGCAACAUUCCGAGGGGACCGUCCCCUCGGUAAUGGCGAAUGGGACCAA [G2U C86A] | 0.152
GUCCGGCAUGGUCCCAGCCUCCUCGCUGGCGCCGGCUGGGCAACAUUCCGAGGGGACCGUCCCCUCGGUAAUGGCGAAUGGGACCUA [G2U C86U] | 0.095
GUCCGGCAUGGUCCCAGCCUCCUCGCUGGCGCCGGCUGGGCAACACUCCGAGGGGACCGUCCCCUCGGUAAUGGCGAAUGGGACCCA [G2U U46C] | 0.0213

Source: the RNAGym collection of RNA variant scans (doi:10.7554/elife.80360)
